Data published in US20210340215A1 (published 2021).
One block for each binder: values may come before it.

What was measured:
[1] = molecular target: T1, TMPRSS2:ERG gene fusion peptide on HLA-A*02:01 (human); assay: multimer staining
T1 peptide: ALNSEALSV
Text: (§1) Neoantigen specific T cells were detected by combining HLA-multimer staining with 2 different fluorochrome conjugated recombinant HLA (HLA-A02.01, HLA-A03.01, or HLA-A11.01) multimer with neoantigen peptides. Anti-CD8, anti-CD4, anti-CD19, anti-CD16, anti-CD14, anti-CD56 and antibodies and Live/Dead IR dye (Invitrogen) were used for cell surface staining. CD8⁺ T cells were identified as CD8⁺CD4⁻CD19⁻CD16⁻CD14⁻CD56⁻IR⁻ (FIGS. 1, 2, 4A, 5, 6A, 8F, 8G, 9, 10A, 10B, 11, 13, 15, 16A and 16B). For sorting, up to 5×10⁶ cells were incubated with 1-20 μg multimer in 100 μL PBS+0.5% human serum. Antibodies and Live/Dead IR dye were used to stain the cells for an additional 30 min. After staining, cells were washed twice and diluted in PBS+0.5% human serum. Live/Dead IR dye-negative cells were gated and CD8⁺/multimer⁺ T cells were sorted on a FACSAria cell sorter (BD Biosciences).

[2] = molecular target: T2, BTK C481S peptide on HLA-A*02:01 (human); assay: multimer staining
T2 peptide: SLLNYLREM
Text: as §1

[3] = molecular target: T3, GATA3 neoORF (frameshift; CSNH) peptide on HLA-A*02:01 (human); assay: multimer staining
T3 peptide: MLTGPPARV
Text: as §1

[4] = molecular target: T4, KRAS G12V peptide on HLA-A*11:01 (human); assay: multimer staining
T4 peptide: VVGAVGVGK
Text: as §1

[5] = molecular target: T5, GATA3 neoORF (frameshift; CSNH) peptide on HLA-B*08:01 (human); assay: cytokine release
T5 peptide: ESKIMFATL

B2: BTK TCR-1 (TCR, V domains shown)
Valpha: QKEVEQNSGPLSVPEGAIASLNCTYSDRGSQSFFWYRQYSGKSPELIMFIYSNGDKEDGRFTAQLNKASQYVSLLIRDSQPSDSATYLCAVNDYGGSQGNLIFGKGTKLSVKP
Vbeta: DTGVSQNPRHKITKRGQNVTFRCDPISEHNRLYWYRQTLGQGPEFLTYFQNEAQLEKSRLLSDRFSAERPKGSFSTLEIQRTEQGDSAMYLCASSFGPDEKLFFGSGTQLSVL
- binding result [2]: recognises

B3: GATA3 TCR-1 (TCR, V domains shown)
Valpha: SQKIEQNSEALNIQEGKTATLTCNYTNYSPAYLQWYRQDPGRGPVFLLLIRENEKEKRKERLKVTFDTTLKQSLFHITASQPADSATYLCALDIYGNNRLAFGKGNQVVVIP
Vbeta: DVKVTQSSRYLVKRTGEKVFLECVQDMDHENMFWYRQDPGLGLRLIYFSYDVKMKEKGDIPEGYSVSREKKERFSLILESASTNQTSMYLCASSLDFVLAGSYSYNEQFFGPGTRLTVL
- binding result [3]: recognises

B4: RAS TCR-28 (TCR, V domains shown)
Valpha: DQQVKQNSPSLSVQEGRISILNCDYTNSMFDYFLWYKKYPAEGPTFLISISSIKDKNEDGRFTVFLNKSAKHLSLHIVPSQPGDSAVYFCAASAVGQEYGNKLVFGAGTILRVKS
Vbeta: DTGVSQNPRHKITKRGQNVTFRCDPISEHNRLYWYRQTLGQGPEFLTYFQNEAQLEKSRLLSDRFSAERPKGSFSTLEIQRTEQGDSAMYLCASSEYTMGTQYFGPGTRLLVL
- binding result [4]: recognises

B6: BTK TCR-2 (TCR, V domains shown)
Valpha: QKEVEQNSGPLSVPEGAIASLNCTYSDRGSQSFFWYRQYSGKSPELIMFIYSNGDKEDGRFTAQLNKASQYVSLLIRDSQPSDSATYLCAVNEGDSSYKLIFGSGTRLLVRP
Vbeta: DSGVTQTPKHLITATGQRVTLRCSPRSGDLSVYWYQQSLDQGLQFLIQYYNGEERAKGNILERFSAQQFPDLHSELNLSSLELGDSALYFCASSPGANEKLFFGSGTQLSVL
- binding result [2]: recognises

B7: RAS TCR-26 (TCR, V domains shown)
Valpha: DQQVKQNSPSLSVQEGRISILNCDYTNSMFDYFLWYKKYPAEGPTFLISISSIKDKNEDGRFTVFLNKSAKHLSLHIVPSQPGDSAVYFCAANAGGTSYGKLTFGQGTILTVHP
Vbeta: EPEVTQTPSHQVTQMGQEVILRCVPISNHLYFYWYRQILGQKVEFLVSFYNNEISEKSEIFDDQFSVERPDGSNFTLKIRSTKLEDSAMYFCASSEWGSTGELFFGEGSRLTVL
- binding result [4]: recognises

Further lines, results first:

- binding result [1]: recognises
B1: TMPRSS2::ERG TCR-1 (TCR, V domains shown)
Valpha: AQKVTQAQTEISVVEKEDVTLDCVYETRDTTYYLFWYKQPPSGELVFLIRRNSFDEQNEISGRYSWNFQKSTSSFNFTITASQVVDSAVYFCALSEARVFNGANSKLTFGKGITLSVRP
Vbeta: EAGVTQFPSHSVIEKGQTVTLRCDPISGHDNLYWYRRVMGKEIKFLLHFVKESKQDESGMPNNRFLAERTGGTYSTLKVQPAELEDSGVYFCASSQADSPLHFGNGTRLTVT

- binding result [5]: recognises
B5: GATA3 TCR-3 (TCR, V domains shown)
Valpha: AQSVSQHNHHVILSEAASLELGCNYSYGGTVNLFWYVQYPGQHLQLLLKYFSGDPLVKGIKGFEAEFIKSKFSFNLRKPSVQWSDTAEYFCAVISVTGNNRKLIWGLGTSLAVNP
Vbeta: DGGITQSPKYLFRKEGQNVTLSCEQNLNHDAMYWYRQDPGQGLRLIYYSQIVNDFQKGDIAEGYSVSREKKESFPLTVTSAQKNPTAFYLCASSRTAMNTEAFFGQGTRLTVV

- binding result [4]: recognises
B8: RAS TCR-27 (TCR, V domains shown)
Valpha: ELKVEQNPLFLSMQEGKNYTIYCNYSTTSDRLYWYRQDPGKSLESLFVLLSNGAVKQEGRLMASLDTKARLSTLHITAAVHDLSATYFCAVDIIGGKSTFGDGTTLTVKP
Vbeta: EPEVTQTPSHQVTQMGQEVILRCVPISNHLYFYWYRQILGQKVEFLVSFYNNEISEKSEIFDDQFSVERPDGSNFTLKIRSTKLEDSAMYFCASSEWGSTGELFFGEGSRLTVL
